Reference: patent US20240368238A1 (DRACOTERPIN BIOMEDICINE, published 2024)
Changes are numbered by the printed parent chain.

T1: IL-2Rβ/γ-Fc heterodimer (IL-2Rβ-Fc-hole + IL-2Rγ-Fc-knob) (UniProt P14784 27-240; P31785 23-262)
T1 construct: Both chains transfected together into HEK293; purified with Protein A and Superdex 200; used as the analyte in the BLI; also called IL-2Rβ/γ heterodimers; not shown: Fc hole; Fc knob
T1 sequence (looked up) 1: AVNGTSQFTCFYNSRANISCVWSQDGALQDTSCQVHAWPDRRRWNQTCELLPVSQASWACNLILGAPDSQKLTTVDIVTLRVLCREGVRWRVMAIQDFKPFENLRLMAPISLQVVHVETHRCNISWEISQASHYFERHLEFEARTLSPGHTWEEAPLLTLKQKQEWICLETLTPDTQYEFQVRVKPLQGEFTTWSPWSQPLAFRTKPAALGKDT
T1 sequence (looked up) 2: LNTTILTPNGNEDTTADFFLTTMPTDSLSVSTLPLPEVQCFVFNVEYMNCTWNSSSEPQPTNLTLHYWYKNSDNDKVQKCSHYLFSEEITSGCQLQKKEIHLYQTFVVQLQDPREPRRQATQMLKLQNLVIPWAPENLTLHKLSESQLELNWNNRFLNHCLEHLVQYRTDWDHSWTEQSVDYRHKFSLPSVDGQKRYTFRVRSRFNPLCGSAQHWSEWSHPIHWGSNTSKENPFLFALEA

T2: IL-2Rβ/γ receptor subunit complex on CTLL-2 cells (UniProt P16297 27-539; P34902 23-369)
T2 sequence (looked up) 1: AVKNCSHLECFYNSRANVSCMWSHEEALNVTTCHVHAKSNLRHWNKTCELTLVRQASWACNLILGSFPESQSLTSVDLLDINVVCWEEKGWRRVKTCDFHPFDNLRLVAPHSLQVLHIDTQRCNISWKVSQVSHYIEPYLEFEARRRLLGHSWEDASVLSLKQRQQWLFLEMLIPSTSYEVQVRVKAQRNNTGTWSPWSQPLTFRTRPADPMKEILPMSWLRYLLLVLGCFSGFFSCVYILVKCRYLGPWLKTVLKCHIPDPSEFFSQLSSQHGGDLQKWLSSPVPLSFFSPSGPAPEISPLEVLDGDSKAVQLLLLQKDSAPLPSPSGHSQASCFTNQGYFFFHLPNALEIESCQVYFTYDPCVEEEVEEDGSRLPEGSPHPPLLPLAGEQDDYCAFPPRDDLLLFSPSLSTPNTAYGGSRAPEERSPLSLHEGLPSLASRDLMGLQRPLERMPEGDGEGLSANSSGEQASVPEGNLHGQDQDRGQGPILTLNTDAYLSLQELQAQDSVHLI
T2 sequence (looked up) 2: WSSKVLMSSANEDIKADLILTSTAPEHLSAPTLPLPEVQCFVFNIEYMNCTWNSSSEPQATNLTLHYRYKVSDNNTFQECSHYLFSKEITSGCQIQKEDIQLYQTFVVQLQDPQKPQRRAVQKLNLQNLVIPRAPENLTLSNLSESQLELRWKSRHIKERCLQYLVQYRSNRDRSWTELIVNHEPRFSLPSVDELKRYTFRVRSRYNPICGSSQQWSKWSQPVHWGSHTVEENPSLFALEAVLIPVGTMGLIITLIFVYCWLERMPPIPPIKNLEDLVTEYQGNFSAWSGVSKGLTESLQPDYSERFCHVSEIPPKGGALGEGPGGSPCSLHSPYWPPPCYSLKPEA

T3: IL2-Rα-his (UniProt P01589 22-240, limits assumed)
T3 construct: used as the analyte in the BLI; also called IL-2 receptor α; CD25; not shown: his tag
T3 sequence (looked up): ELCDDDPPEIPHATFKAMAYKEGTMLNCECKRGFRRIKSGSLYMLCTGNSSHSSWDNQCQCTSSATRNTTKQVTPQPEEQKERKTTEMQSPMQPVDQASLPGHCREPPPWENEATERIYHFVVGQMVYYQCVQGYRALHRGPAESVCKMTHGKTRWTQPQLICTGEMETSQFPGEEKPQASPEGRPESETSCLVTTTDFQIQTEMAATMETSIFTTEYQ

B1: IL-2-4 (43-45 + 125) (ligand)
chain: APTSSSTKKTQLQLEHLLLDLQMILNGINNYKNPKLTRMLTFGMPKKATELKHLQCLEEELKPLEEVLNLAQSKNFHLRPRDLISNINVIVLELKGSETTFMCEYADETATIVEFLNRWITFAQSIISTLT
notes: Human IL-2 variant; HEK293 expression, purified by the HPC4 tag; not shown: HPC4 tag at the C-terminus
B2: IL-2-7 (31-32 + 43-45 + 125) (ligand)
chain: B1 chain with Y31G, K32G
notes: as for B1
B3: IL-2-6 (35-41 + 43-45 + 125) (ligand)
chain: APTSSSTKKTQLQLEHLLLDLQMILNGINNYKNPMHGLDGFGMPKKATELKHLQCLEEELKPLEEVLNLAQSKNFHLRPRDLISNINVIVLELKGSETTFMCEYADETATIVEFLNRWITFAQSIISTLT
notes: as for B1
B4: IL-2-9 (35-41 + 43-45 + 125) (ligand)
chain: B3 chain with M35G, H36G, L38G, D39G
notes: as for B1
B5: IL-2-1 (31-32 + 35-41 + 43-45 + 125) (ligand)
chain: B3 chain with Y31G, K32G
notes: as for B1
B6: IL-2-8 (35-43 + 125) (ligand)
chain: B3 chain with H36G, D39G, G42Y
notes: as for B1
B7: IL-2-2 (35-41 + 125) (ligand)
chain: APTSSSTKKTQLQLEHLLLDLQMILNGINNYKNPMHGLDGFKFYMPKKATELKHLQCLEEELKPLEEVLNLAQSKNFHLRPRDLISNINVIVLELKGSETTFMCEYADETATIVEFLNRWITFAQSIISTLT
notes: as for B1
B8: IL-2-5 (31-32 + 35-41 + 125) (ligand)
chain: B7 chain with Y31G, K32G
notes: as for B1
B9: IL-2-3 (31-32 + 125) (ligand)
chain: APTSSSTKKTQLQLEHLLLDLQMILNGINNGGNPKLTRMLTFKFYMPKKATELKHLQCLEEELKPLEEVLNLAQSKNFHLRPRDLISNINVIVLELKGSETTFMCEYADETATIVEFLNRWITFAQSIISTLT
notes: as for B1

What follows are binders tested against T1, IL-2Rβ/γ-Fc heterodimer (IL-2Rβ-Fc-hole …) (assay: BLI (Octet RED96e), AR2G sensors, IL-2Rβ/γ-Fc heterodimer as analyte, 1:1 global fit).
Procedure: (§1) Experimental data were processed using Data Analysis software 9.0. […] The method of global fitting was applied, i.e., the 6 concentrations were analyzed as a group.

Row | Binder | Kd [nM]
1 | B1 | 4.11
2 | B2 | 6.48
3 | B3 | 19.6
4 | B4 | 27.2
5 | B5 | 17.9
6 | B6 | 21.3
7 | B7 | 4.87
8 | B8 | 5.24
9 | B9 | 3.74

The binders below were run against T2, IL-2Rβ/γ receptor subunit complex on … (assay: cell-based or functional assay).

Row | Binder | Relative activity (CTLL-2 cell proliferation, CCK-8) [%]
10 | B1 | 100
11 | B2 | 58
12 | B3 | 13
13 | B4 | 8
14 | B5 | 13
15 | B6 | 8
16 | B7 | 64
17 | B8 | 90
18 | B9 | 100

These binders were tested against T3, IL2-Rα-his (assay: Octet BLI per Example 2, IL-2Rα-his as analyte at the concentration on the x axis; y axis on the sheet reads OD490).
Procedure: (§2) 2. The experiment was performed with reference to the experimental design below. The whole experiment was completed under the conditions of 30° C., 1000 rpm, 220 μl/well. The proteins used in the experiment were IL2-Rα-his and IL-2 variants or derivatives thereof obtained by transient expression in HEK293 and affinity purification.
as §1

Row | Binder | EC50 (read off the curve) [nM] | binding result
19 | B1 | ~60 | –
20 | B2 | ~70 | –
21 | B3 | – | no binding (tested: 500 nM)
22 | B4 | – | no binding (tested: 500 nM)
23 | B5 | – | no binding (tested: 500 nM)
24 | B6 | – | no binding (tested: 1000 nM)
25 | B7 | ~60 | –
26 | B8 | ~60 | –
27 | B9 | ~60 | –

What follows are binders tested against T3, IL2-Rα-his (assay: BLI (Octet RED96e), AR2G sensors, IL-2Rα-his as analyte, 1:1 global fit).
Procedure: as §2, §1

Row | Binder | Kd [nM]
28 | B1 | 0.799
29 | B2 | 3.25
30 | B7 | 0.789
31 | B8 | 0.904
32 | B9 | 0.656

Each binder was assayed against T1, IL-2Rβ/γ-Fc heterodimer (IL-2Rβ-Fc-hole …) (assay: Octet BLI per Example 3, IL-2Rβ/γ-Fc heterodimer as analyte at the concentration on the x axis; y axis on the sheet reads OD490).
Procedure: as §1

Row | Binder | EC50 (read off the curve) [nM]
33 | B1 | ~100
34 | B2 | ~100
35 | B3 | ~100
36 | B4 | ~100
37 | B5 | ~100
38 | B6 | ~100
39 | B7 | ~100
40 | B8 | ~100
41 | B9 | ~100
